From patent publication US20050221395A1, “Methods and products based on oligomerization of stress proteins” (priority 2002, published 2005)

Assays:
NECA ligand binding = assay: NECA ligand binding
Description: Dimer content also correlates with the ability of gp96 to bind NECA. Using the gp96-peptide complex isolated from CT-26 tumors, aliquots of each preparation were also analyzed for NECA ligand binding.

[1] = test system: murine antigen presenting cells; assay: MCP-1 secretion by antigen presenting cells; type: cell-based
Description: (§1) Further experiments indiate that dimer content correlates with the ability of gp96 to stimulate chemokine/nitric oxide release by antigen presenting cells. Gp96 purified from the Meth-A murine fibrosarcoma tumors, subjected to both thermal and pH perturbations. This material was analyzed by SEC and NECA binding for its ability to induce murine antigen presenting cells to secrete MCP-1 and nitric oxide. […] NECA ligand binding and both MCP-1 and NO production decreased concomitantly with the loss of dimer. A similar trend was observed upon exposure of gp96 to pH 3, but not pH 7 or 9.

[2] = % dimer by size exclusion chromatography (SEC); type: physicochemical
Description: Gp96-peptide complex was isolated from murine CT-26 tumors. Separate aliquots of each preparation were either maintained at 4° C. (untreated) or subjected to mild heat treatment to denature the complex.
HPLC size exclusion chromatography is currently being optimized and has been run under a few different formats. The column was either a TSK 3000SWXL (Toso Haus) or a Superose 6 (Amersham Pharmacia) equilibrated in 10 mM phosphate buffer, pH 7.1, with 300 mM NaCl. All experiments were run at room temperature on a Waters Alliance or HP 1100 HPLC systems at a flow rate of 0.5 mL/min. The following results for human tumor derived gp96 (reported in Table 3, below) were all analyzed on the Superose 6 column. % dimer values represent the area percent of the dimer peak relative to total peak area.

[3] = test system: murine antigen presenting cells; assay: nitric oxide (NO) secretion by antigen presenting cells; type: cell-based
Description: as §1

B1: gp96: Gp96 purified from the Meth-A murine fibrosarcoma tumors, subjected to thermal and pH perturbations (FIG. 2) (protein, UniProt P08113 22-802, looked up)
Endoplasmin: DDEVDVDGTVEEDLGKSREGSRTDDEVVQREEEAIQLDGLNASQIRELREKSEKFAFQAEVNRMMKLIINSLYKNKEIFLRELISNASDALDKIRLISLTDENALAGNEELTVKIKCDKEKNLLHVTDTGVGMTREELVKNLGTIAKSGTSEFLNKMTEAQEDGQSTSELIGQFGVGFYSAFLVADKVIVTSKHNNDTQHIWESDSNEFSVIADPRGNTLGRGTTITLVLKEEASDYLELDTIKNLVRKYSQFINFPIYVWSSKTETVEEPLEEDEAAKEEKEESDDEAAVEEEEEEKKPKTKKVEKTVWDWELMNDIKPIWQRPSKEVEEDEYKAFYKSFSKESDDPMAYIHFTAEGEVTFKSILFVPTSAPRGLFDEYGSKKSDYIKLYVRRVFITDDFHDMMPKYLNFVKGVVDSDDLPLNVSRETLQQHKLLKVIRKKLVRKTLDMIKKIADEKYNDTFWKEFGTNIKLGVIEDHSNRTRLAKLLRFQSSHHSTDITSLDQYVERMKEKQDKIYFMAGSSRKEAESSPFVERLLKKGYEVIYLTEPVDEYCIQALPEFDGKRFQNVAKEGVKFDESEKTKESREATEKEFEPLLNWMKDKALKDKIEKAVVSQRLTESPCALVASQYGWSGNMERIMKAQAYQTGKDISTNYYASQKKTFEINPRHPLIRDMLRRIKEDEDDKTVMDLAVVLFETATLRSGYLLPDTKAYGDRIERMLRLSLNIDPEAQVEEEPEEEPEDTSEDAEDSEQDEGEEMDAGTEEEEEETEKESTEKDEL
modifications: Meth-A tumor derived
NECA ligand binding; heated to 50° C. and 60° C., at 30 minutes (FIG. 2B)
  NECA binding ability: Neither sample of gp96 could bind NECA
NECA ligand binding; pH 3.0 (FIG. 2F)
  NECA binding ability: markedly reduced
[1]; heated to 50° C. and 60° C. for 30 minutes (FIG. 2C)
  ability to stimulate murine APC secretion of MCP-1: rapid drop
[1]; pH 3.0 (FIG. 2G)
  MCP-1 secretion by murine APCs: markedly reduced
[2]; heated at 50° C. and 60° C., at 30 minutes (FIG. 2A)
  dimer level: Neither sample contained dimers
[2]; pH 3.0 (FIG. 2E)
  dimer levels: markedly reduced
[3]; heated to 50° C. and 60° C. for 30 minutes (FIG. 2D)
  ability to stimulate murine APC secretion of NO: rapid drop
[3]; pH 3.0 (FIG. 2H)
  NO secretion by murine APCs: markedly reduced
